Source: the supplement of paper PMC10567573

B1: DCAF4 (parent)
chain: DSHILLCLMGLAETPGCATLLPAS

Variants of: B1
Test: protein stability index of a GFP-peptide fusion (GPS, HEK-293T) (PSI 1-6); higher = more stable
Conditions: c terminus: a fixed tail appended
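Note: lentivirally expressed fusions sorted by FACS into six bins by GFP to DsRed ratio, PSI derived from sequencing read proportions per bin multiplied by bin number.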

In order of rising protein stability index:
1. DSHILLCLMGNAETPGCATLLPAS [L11N]  1.27
2. DSHILLCLMGEAETPGCATLLPAS [L11E]  1.3
3. DSHILLCLMGSAETPGCATLLPAS [L11S]  1.4
4. DSHILLCLKGLAETPGCATLLPAS [M9K]  1.42
5. DSHILLCLMGGAETPGCATLLPAS [L11G]  1.6
6. DSHILLCLNGLAETPGCATLLPAS [M9N]  1.6
7. DSHILLCLMGQAETPGCATLLPAS [L11Q]  1.66
8. DSHILLCLMGDAETPGCATLLPAS [L11D]  1.66
9. DSHILLCLSGLAETPGCATLLPAS [M9S]  1.67
10. DSHILLCLMGLNETPGCATLLPAS [A12N]  1.69
11. DSHILLCLGGLAETPGCATLLPAS [M9G]  1.7
12. DSHILLCLMGKAETPGCATLLPAS [L11K]  1.71
13. DSHILLCLCGLAETPGCATLLPAS [M9C]  1.71
14. DSHILLCLMELAETPGCATLLPAS [G10E]  1.79
15. DSHILLCLMGWAETPGCATLLPAS [L11W]  1.8
16. DSHILLCLRGLAETPGCATLLPAS [M9R]  1.82
17. DSHILLCLMALAETPGCATLLPAS [G10A]  1.84
18. DSHILLCLMGLAGTPGCATLLPAS [E13G]  1.88
19. DSHILLCLDGLAETPGCATLLPAS [M9D]  1.92
20. DSHILLCLMGLKETPGCATLLPAS [A12K]  1.92
21. DSHILLCLMGLAEDPGCATLLPAS [T14D]  1.92
22. DSHILLCLMGIAETPGCATLLPAS [L11I]  1.97
23. DSHILLCLTGLAETPGCATLLPAS [M9T]  1.98
24. DSHILLCLMGLAPTPGCATLLPAS [E13P]  2
25. DSHILLCLEGLAETPGCATLLPAS [M9E]  2.02
26. DSHILLCLMGLDETPGCATLLPAS [A12D]  2.02
27. DSHILLCLMGRAETPGCATLLPAS [L11R]  2.05
28. DSHILLCLMGAAETPGCATLLPAS [L11A]  2.08
29. DSHILLCLMGLIETPGCATLLPAS [A12I]  2.11
30. DSHILLCLPGLAETPGCATLLPAS [M9P]  2.12
31. DSHILLCLHGLAETPGCATLLPAS [M9H]  2.14
32. DSHILLCLMQLAETPGCATLLPAS [G10Q]  2.23
33. DSHILLCLMGLAECPGCATLLPAS [T14C]  2.24
34. DSHILLCLMGLEETPGCATLLPAS [A12E]  2.25
35. DSHILLCLQGLAETPGCATLLPAS [M9Q]  2.26
36. DSHILLCLMGLAEMPGCATLLPAS [T14M]  2.26
37. DSHILLCLMGHAETPGCATLLPAS [L11H]  2.36
38. DSHILLCLMGLAQTPGCATLLPAS [E13Q]  2.36
39. DSHILLCLMYLAETPGCATLLPAS [G10Y]  2.37
40. DSHILLCLMGLSETPGCATLLPAS [A12S]  2.37
41. DSHILLCLMGLRETPGCATLLPAS [A12R]  2.39
42. DSHILLCLMGMAETPGCATLLPAS [L11M]  2.42
43. DSHILLCLMGLALTPGCATLLPAS [E13L]  2.42
44. DSHILLCLMGLAFTPGCATLLPAS [E13F]  2.49
45. DSHILLCLMLLAETPGCATLLPAS [G10L]  2.56
46. DSHILLCLMGPAETPGCATLLPAS [L11P]  2.59
47. DSHILLCLMGLHETPGCATLLPAS [A12H]  2.59
48. DSHILLCLMGLAKTPGCATLLPAS [E13K]  2.59
49. DSHILLCLIGLAETPGCATLLPAS [M9I]  2.6
50. DSHILLCLMGVAETPGCATLLPAS [L11V]  2.65
51. DSHILLCLMGLMETPGCATLLPAS [A12M]  2.66
52. DSHILLCLMGTAETPGCATLLPAS [L11T]  2.7
53. DSHILLCLMGLQETPGCATLLPAS [A12Q]  2.74
54. DSHILLCLMGCAETPGCATLLPAS [L11C]  2.76
55. DSHILLCLMGLLETPGCATLLPAS [A12L]  2.76
56. DSHILLCLMGLAHTPGCATLLPAS [E13H]  2.77
57. DSHILLCLMGLAEGPGCATLLPAS [T14G]  2.77
58. DSHILLCLAGLAETPGCATLLPAS [M9A]  2.83
59. DSHILLCLVGLAETPGCATLLPAS [M9V]  2.83
60. DSHILLCLMGLANTPGCATLLPAS [E13N]  2.83
61. DSHILLCLMGLACTPGCATLLPAS [E13C]  2.88
62. DSHILLCLMDLAETPGCATLLPAS [G10D]  2.89
63. DSHILLCLMGLATTPGCATLLPAS [E13T]  2.89
64. DSHILLCLMGLAEAPGCATLLPAS [T14A]  2.93
65. DSHILLCLMMLAETPGCATLLPAS [G10M]  2.95
66. DSHILLCLMGLAEEPGCATLLPAS [T14E]  2.95
67. DSHILLCLMGLCETPGCATLLPAS [A12C]  2.96
68. DSHILLCLMGFAETPGCATLLPAS [L11F]  2.98
69. DSHILLCLMFLAETPGCATLLPAS [G10F]  2.99
70. DSHILLCLMGLAENPGCATLLPAS [T14N]  3.05
71. DSHILLCLYGLAETPGCATLLPAS [M9Y]  3.06
72. DSHILLCLMSLAETPGCATLLPAS [G10S]  3.06
73. DSHILLCLMGLADTPGCATLLPAS [E13D]  3.06
74. DSHILLCLMGLAELPGCATLLPAS [T14L]  3.09
75. DSHILLCLMILAETPGCATLLPAS [G10I]  3.16
76. DSHILLCLMCLAETPGCATLLPAS [G10C]  3.17
77. DSHILLCLMHLAETPGCATLLPAS [G10H]  3.23
78. DSHILLCLMGLASTPGCATLLPAS [E13S]  3.26
79. DSHILLCLMGLFETPGCATLLPAS [A12F]  3.3
80. DSHILLCLMGLAATPGCATLLPAS [E13A]  3.31
81. DSHILLCLMGLAYTPGCATLLPAS [E13Y]  3.33
82. DSHILLCLMGLAEKPGCATLLPAS [T14K]  3.42
83. DSHILLCLMTLAETPGCATLLPAS [G10T]  3.51
84. DSHILLCLMGYAETPGCATLLPAS [L11Y]  3.55
85. DSHILLCLMGLAEHPGCATLLPAS [T14H]  3.66
86. DSHILLCLMGLPETPGCATLLPAS [A12P]  3.88
87. DSHILLCLMKLAETPGCATLLPAS [G10K]  3.89
88. DSHILLCLMGLAMTPGCATLLPAS [E13M]  3.96
89. DSHILLCLMGLYETPGCATLLPAS [A12Y]  4
90. DSHILLCLMGLWETPGCATLLPAS [A12W]  4.01
91. DSHILLCLMGLAVTPGCATLLPAS [E13V]  4.1
92. DSHILLCLMGLAITPGCATLLPAS [E13I]  4.29
93. DSHILLCLWGLAETPGCATLLPAS [M9W]  4.64
94. DSHILLCLLGLAETPGCATLLPAS [M9L]  4.92
